Article PMC6030874

Target: EGFP-MeCP2 R306C (mouse)

methylation-dependent transcriptional repression of a luciferase reporter (untagged MeCP2 e1 in Mecp2-/y, Mbd2-/- mouse tail fibroblasts), relative to WT MeCP2: 25 % of WT
Substance: NCoR1 (from UniProt O75376 1-2440) (natural protein)
